Results taken from US12685781B2, “Anti-HER3 antibody-drug conjugate” (DAIICHI SANKYO COMPANY, LIMITED, priority 2014, dated 2026).

What was measured:
[1] = target: T1, HER3 (Homo sapiens, UniProt P21860); assay: Inhibition of HER3 signal, Western blotting in A549 cells; format: cell-based
Description: A human lung cancer cell line A549 (CRS-300114) from Cell Lines Service was dissociated by trypsin treatment, and 50,000 living cells were inoculated to 3 mL of DMEM/F12 (Invitrogen Corp., #21331-020)+10% FBS (Invitrogen Corp., #10270-106) in each of 6 wells. After culturing the cells for 3 days, the medium was replaced with 2 mL of a fresh medium.
The antibody or each antibody-drug conjugate was added directly to 2 mL of a medium in each of the 6 wells such that the final concentration was 10 ug/mL (20 uL of a stock solution of 1 ug/uL antibody or antibody-drug conjugate was added).
U1-59, the antibody-drug conjugate (3), the antibody-drug conjugate (10), or the antibody-drug conjugate (13) was used as the antibody or the antibody-drug conjugate. An untreated group was used as a control.
The cells were cultured for 2 days, washed once with PBS, and treated with 100 uL of an ice-cooled buffer (50 mM 4-(2-hydroxyethyl)-1-piperazineethanesulfonic acid (HEPES), pH 7.5, 150 mM sodium chloride, 1 mM ethylenediaminetetraacetic acid (EDTA), 12.5% glycerin, 1% Triton X-100, and 10 mM sodium pyrophosphate tetrabasic supplemented with proteinase inhibitors (Roche Diagnostics, Inc., #11697 498 001), 10 mM sodium fluoride, 1 mM sodium vanadate, 1 mM phenyl-methane-sulfonyl-fluoride (PMSF), and 10 ug/mL aprotinin (Sigma-Aldrich Co. LLC, A1153)) for 30 minutes at 4 C for lysis. […]

[2] = target: T1, HER3; assay: HER3 binding affinity by flow cytometry on HCC1569 cells; set-up: host or cells: HCC1569 (human breast cancer cell line); conditions: read-out: Kd (nM), equilibrium binding affinity
Description: A human breast cancer cell line HCC1569 (CRL-2330) from ATCC was cultured in an RPMI1640 medium (purchased from Invitrogen Corp., containing 10% […] (manufactured by Invitrogen Corp.) and 2 mM L-glutamine (manufactured by Invitrogen Corp.)). The cells were dissociated from the culture plate using ACCUTASE® SOLUTION (Millipore Corp., SCR005) or EDTA (5 mM, phosphate buffered saline (PBS, 137 mM sodium chloride, 2.7 mM potassium chloride, 1.47 mM potassium dihydrogen phosphate, and 10.5 mM disodium hydrogen phosphate)), and the number of living cells was measured by trypan blue treatment. The same numbers of cells suspended in a fluorescence-activated cell sorting (FACS) buffer (PBS containing 3% FBS and 0.004% sodium azide) were inoculated to 96-well U-bottom plates, and the cells were precipitated by centrifugation and suspended in 100 uL of an ice-cooled antibody or antibody-drug conjugate dilution or FACS buffer. […]
U1-59, the antibody-drug conjugate (3), the antibody-drug conjugate (10), or the antibody-drug conjugate (13) was evaluated as the antibody or the antibody-drug conjugates. […]
Fluorescence signals from living cells were evaluated using Accuri C6 Flow cytometer (BD Biosciences/Accuri® Cytometers Inc., serial number 1424) and CFlow software (CFlow sampler Version 1.0.264.13). […]

U1-59: anti-HER3 human antibody; heavy and light chain variable regions SEQ ID NOs: 70 and 72; produced per WO 2007/077028
HER3 phosphorylation compared with untreated cells ([1]; A549, 10 ug/mL, 2 days): reduced
HER3 expression compared with untreated cells ([1]; A549, 2 days): reduction in HER3 expression was also observed
Kd [2]: 1.6 nM
